Tests used:
[1] = tested on: hESC-derived primitive streak; experiment: Paraxial versus lateral/cardiac mesoderm specification from primitive streak; assay type: cell-based, human
Experimental: (§1) Subsequently, day 1 anterior primitive streak was briefly washed (DMEM/F12) and differentiated towards day 2 paraxial mesoderm for 24 hours (1 μM A-83-01+3 μM CHIR99021+250 nM LDN-193189+20 ng/mL FGF2). Separately, day 1 mid primitive streak was differentiated towards day 2 lateral mesoderm for 24 hours (1 μM A-83-01+30 ng/mL BMP4+1 μM C59; with 2 μM SB-505124 sometimes used instead of A-83-01).
B) To assess whether FGF/ERK signaling was permissive for both paraxial and lateral/cardiac mesoderm specification, hESCs were differentiated into primitive streak for 24 hours, and then transferred into (i) A-83-01+DM3189 (“AD”; permissive for paraxial mesoderm) or (iii) A-83-01+BMP4+C59 (“AB+C59”; permissive for lateral/cardiac mesoderm) for 24 hours in the presence or absence of a FGF agonist (FGF2, 10-20 ng/mL), an FGFR inhibitor (PD173074, 100 nM) or a MAPK/ERK inhibitor (PD0325901, 500 nM) for 24 hours and qPCR for all experiments was conducted on day 2 (that is, after 48 total hours of hESC differentiation). To assess whether TGFβ signaling altered paraxial, intermediate and lateral/cardiac mesoderm specification, hESCs were differentiated into primitive streak for 24 hours, and then transferred into (ii) DM3189+FGF2 (“DF”; permissive for paraxial mesoderm) or (iv) BMP4+C59 (“B+C59”; permissive for lateral/cardiac mesoderm) for 24 hours in the presence of a TGFβ agonist (Activin, 10-25 ng/mL) or a TGFβR inhibitor (A-83-01, 1 μM) for 24 hours or (v) BMP4 (3 ng/mL)+FGF2 (20 ng/mL) (“B3F20”) for 24 hours in the presence of a TGFβ agonist (Activin, 3-25 ng/mL) or a TGFβR inhibitor (A-83-01, 1 μM) and qPCR for all experiments was conducted on day 2 (that is, after 48 total hours of hESC differentiation). […] Therefore, hESCs were differentiated towards primitive streak for 24 hours, and then subsequently transferred into (i) A-83-01+CHIR99021+FGF2 (ACF) in the presence or absence of one of two BMPR inhibitors (DMH1, 1 μM or LDN193189, 250 nM) for 24 hours and qPCR was conducted on day 2. Alternately, hESC-derived PS was transferred into (ii) CHIR99021+DM3189+FGF2 (CDF) for 24 hours in the presence or absence of a TGFβ agonist (25 ng/mL Activin) or one of two TGFβR inhibitors (SB-505124, 2 μM or A-83-01, 1 μM) for 24 hours and qPCR was conducted on day 2. […] E) To test the role of FGF in lateral mesoderm induction (on day 2 of hESC differentiation), NKX2.5-GFP hESCs were differentiated into mid primitive streak for 24 hours, and then were treated with BMP4+C59+SB505124 in the presence of an FGF agonist (FGF2, 20-50 ng/mL) or a FGFR inhibitor (PD173074, 100 nM) or a MAPK/ERK inhibitor (PD0325901, 500 nM) for 24 hours, and then all cultures were treated with BMP4+C59+SB505124+FGF2 for 24 hours more before being harvested on day 3 for FACS.

hESCs = experiment: Downstream mesoderm potential of PS induced with Activin or BMP4; assay type: cell-based, human
Experimental: as §1
E) To assess whether inducing PS in the presence of TGFβ signaling altered its downstream potential to form different kinds of mesoderm, (i) H7 hESCs were differentiated into PS with CHIR99021+FGF2+PIK90 (CFK) for 24 hours in the presence or absence of increasing amounts of Activin (10-100 ng/mL), and then were transferred into paraxial mesoderm induction conditions (A-83-01+CHIR99021+DM3189+FGF2) for 24 hrs, and qPCR was conducted or (ii) H7 hESCs were differentiated into PS with BMP4 (10 ng/mL)+CHIR99021+FGF2+PIK90 (B10CFK) for 24 hours in the presence or absence of increasing amounts of Activin (10-100 ng/mL), and then were transferred into lateral/cardiac mesoderm inductions (A-83-01+BMP4+C59) for 24 hours and qPCR was conducted. […] F) To assess whether inducing PS in the presence of BMP signaling altered its downstream potential to form different kinds of mesoderm, H7 hESCs were differentiated into PS with Activin (10 ng/mL)+CHIR99021+FGF2+PIK90 (A10CFK) for 24 hours in the presence of absence of increasing amounts of BMP4 (1-40 ng/mL), and then were (i) transferred into paraxial mesoderm induction conditions (A-83-01+CHIR99021+DM3189+FGF2) for 24 hrs, and qPCR was conducted or were (ii) transferred into lateral/cardiac mesoderm inductions (A-83-01+BMP4+C59) for 24 hours and qPCR was conducted. […] G) H7 hESCs were differentiated into anterior primitive streak (30 ng/mL Activin+4 μM CHIR99021+20 ng/mL FGF2+100 nM PIK90) in the presence or absence of BMP4 (10 ng/mL) for 24 hours, and then transferred into paraxial mesoderm induction conditions for 24 hours before TBX6 immunostaining was conducted. […] H) NKX2.5-GFP hESCs were differentiated into primitive streak with BMP4+CHIR99021+FGF2+PIK90 for 24 hours in the presence or absence of increasing doses of Activin (10-100 ng/mL), and then transferred into suboptimal lateral/cardiac mesoderm induction conditions (A-83-01+BMP4+C59, without FGF2) for 48 hours and FACS was performed after 72 hours of total differentiation to quantify NKX2.5-GFP^+ cell percentages. […] I) Efficient MIXL11^+ PS specification is highly reproducible in both anterior and mid PS differentiation conditions (“APS” and “MPS”, respectively) across 4 independent differentiation experiments, as assayed by a MIXL1-GFP knock-in reporter hESC line. Each circle or triangle represents an individual experiment and the average differentiation efficiency attained across all experiments is indicated.

Cc1cccc(-c2[nH]c(C(C)(C)C)nc2-c2ccc3c(c2)OCO3)n1 [SB-505124, 2-[4-(1,3-Benzodioxol-5-yl)-2-(1,1-dimethylethyl)-1H-imidazol-5-yl]-6-methyl-pyridine]
paraxial mesoderm induction (qPCR day 2) ([1]; ACF with DMH1 1 μM or LDN193189 250 nM, CDF with SB-505124 2 μM or A-83-01 1 μM, 24 hours): serve to induce paraxial mesoderm | NKX2.5-GFP+ cardiac mesoderm induction (FACS day 3) ([1]; BMP4 (50 ng/mL)+C59, 48 hours, SB-505124 2 μM or A-83-01 1 μM, P<0.01): increased NKX2.5-GFP^+ cardiac mesoderm induction

B1: Activin: TGFβ agonist (protein, UniProt P08476 311-426, looked up)
Inhibin beta A chain: GLECDGKVNICCKKQFFVSFKDIGWNDWIIAPSGYHANYCEGECPSHIAGTSGSSLSFHSTVINHYRMRGHSPFANLKSCCVPTKLRPMSMLYYDDGQNIIKKDIQNMIVEECGCS
modifications: Inhibin beta A chain
notes: TGFβ agonist
lateral/cardiac mesoderm potential of PS (qPCR) (hESCs; PS induced in B10CFK with lower Activin (e.g., 10 ng/mL)): had maximal lateral/cardiac mesoderm potential | paraxial mesoderm potential of PS (qPCR) (hESCs; PS induced in CFK with higher Activin doses (e.g., 30 ng/mL)): instilled paraxial mesoderm potential | NKX2.5-GFP+ cell percentages (FACS, 72 hours) (hESCs; higher Activin doses (50-100 ng/mL) during PS induction): less effective | NKX2.5-GFP+ cell percentages (FACS, 72 hours) (hESCs; low to moderate Activin during PS induction): maximizes subsequent differentiation into NKX2.5-GFP^+ cardiac mesoderm

B2: BMP4: BMP family ligand, BMP agonist (protein, UniProt P12644 293-408, looked up)
Bone morphogenetic protein 4: SPKHHSQRARKKNKNCRRHSLYVDFSDVGWNDWIVAPPGYQAFYCHGDCPFPLADHLNSTNHAIVQTLVNSVNSSIPKACCVPTELSAISMLYLDEYDKVVLKNYQEMVVEGCGCR
paraxial mesoderm potential of PS (qPCR) (hESCs; PS induced in A10CFK with BMP4 (1-40 ng/mL)): strongly blocked paraxial mesoderm potential | lateral/cardiac mesoderm potential of PS (qPCR) (hESCs; PS induced in A10CFK with high BMP4 (40 ng/mL)): maximized lateral/cardiac mesoderm potential | TBX6 immunostaining after paraxial mesoderm induction (hESCs; anterior PS induced with BMP4 (10 ng/mL), 24 hours): larger numbers of TBX6^− clusters of non-paraxial mesoderm cells | lateral mesoderm specification (qPCR) ([1]; A8301+C59, 24 hours, BMP4 10-30 ng/mL): required to drive lateral mesoderm specification

From US10787640B2, “Producing mesodermal cell types and methods of using the same” (The Board of Trustees of the Leland Stanford Junior …, priority 2015, dated 2020)
